Test results published in US10428140B2, “Anti-EphA4 antibody” (EISAI R&D MANAGEMENT CO., LTD., priority 2015, dated 2019).

How the values were obtained:
human EphA4 = target: T1, human EphA4 (Homo sapiens, UniProt P54764); experiment: Affinity of humanized antibodies by SPR (Biacore T200); format: binding; settings: human EphA4 extracellular region-SEAP-His; for ka / kd: 1:1 binding model; for Kd: KD=kd/ka
T1 construct: made in house; not restated for the human SEAP-His protein
Description: The binding affinity of each anti-EphA4 monoclonal humanized antibody obtained in Example 16 for human EphA4 was determined by surface plasmon resonance (SPR) using Biacore T200 (GE Healthcare). First, for the assay of antibody A, a rat anti-mouse IgG1 antibody produced with a conventional method by immunizing rat with mouse IgG1 antibody was immobilized on sensor chip CM5. The immobilization of the rat anti-mouse IgG1 antibody on sensor chip CM5 was performed by the amine coupling method using N-hydroxysuccinimide (NHS) and N-ethyl-N′-(3-dimethylaminopropyl)carbodiimide hydrochloride (EDC). Ethanolamine was used in blocking (the sensor chip and the reagents for immobilization were all manufactured by GE Healthcare). The antibody was diluted with a buffer solution for immobilization (10 mM sodium acetate, pH 4.5) and immobilized on the sensor chip according to the protocol attached to Biacore T200. For the assay of each humanized monoclonal antibody, a protein A chip (GE Healthcare, 29-1383-03) was used. Antibody A or the humanized monoclonal antibody was diluted with a running buffer solution HBS-EP (GE Healthcare), injected onto only flow cell 2 for 120 seconds, and captured (captured amount: approximately 30 to 60 RU). Subsequently, human EphA4 extracellular region-SEAP-His protein serially diluted in the range of 50, 16.7, 5.6, 1.9, and 0.6 nM using HBS-EP was sequentially added from the lower toward higher concentration sides without regeneration operation. Binding reaction curves were sequentially observed at the time of the addition (association phase, for 120 sec) and after the completion of the addition (dissociation phase, for 900 sec). After the completion of each observation, the sensor chip was regenerated by the addition of 3 M MgCl2 (for 60 sec) or 10 mM Glycine-HCl pH 1.5 (for 30 sec). The obtained binding reaction curves were subjected to fitting analysis with 1:1 binding models using software BIA evaluation attached to the system to calculate the affinity (KD=kd/ka) for human EphA4 (Table 6).

[1] = target: T2, human EphA4 (binding to human Ephrin A5) (Homo sapiens, UniProt P54764); experiment: Human EphA4-human ligand binding inhibition ELISA of humanized antibodies (biotinylated Ephrin A5-Fc); settings: biotinylated human Ephrin A5-Fc 0.7 nM
T2 construct: made in house; not restated for the human SEAP-His protein
T2 sequence (P54764 20-547): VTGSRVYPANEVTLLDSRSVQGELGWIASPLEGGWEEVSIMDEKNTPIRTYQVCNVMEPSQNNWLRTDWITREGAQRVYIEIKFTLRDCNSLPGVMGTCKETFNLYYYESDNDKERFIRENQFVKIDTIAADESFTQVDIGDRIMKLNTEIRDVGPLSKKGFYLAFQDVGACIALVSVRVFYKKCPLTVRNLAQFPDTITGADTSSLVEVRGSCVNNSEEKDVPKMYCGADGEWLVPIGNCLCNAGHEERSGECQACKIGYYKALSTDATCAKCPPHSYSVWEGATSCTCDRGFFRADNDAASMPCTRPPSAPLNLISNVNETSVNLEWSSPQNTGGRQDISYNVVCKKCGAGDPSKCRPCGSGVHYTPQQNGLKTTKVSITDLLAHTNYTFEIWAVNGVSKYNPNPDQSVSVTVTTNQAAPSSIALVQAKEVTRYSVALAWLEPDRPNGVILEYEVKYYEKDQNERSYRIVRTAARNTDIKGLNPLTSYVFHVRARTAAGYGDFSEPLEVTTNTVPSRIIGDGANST
Description: Each anti-EphA4 monoclonal humanized antibody obtained in Example 16 was evaluated for its inhibitory activity against the binding between human EphA4 and its human ligand according to the following steps. Each well of a 96-well plate (Nunc) was coated with an anti-alkaline phosphatase antibody (Thermo Fisher Scientific). After incubation overnight at 4° C., each well was blocked with 1% BlockAce (DS Pharma Biomedical) at room temperature for 1 hour. After washing with 0.05% Tween 20/PBS (Thermo Fisher Scientific) three times, the human EphA4 extracellular region-SEAP-His protein obtained by the method of Example 2 was added (final concentration: 10 nM) to each well and incubated at room temperature for 1 hour. After washing three times, a ligand and each serially diluted humanized antibody of antibody A (0, 0.003, 0.01, 0.03, 0.1, 0.3, 1, 3, 10, 30, 100, 300, 1000, and 3000 nM) were added to each well. The ligand used was biotinylated human Ephrin A5-Fc chimera (R&D Systems, final concentration: 0.7 nM). After incubation at room temperature for 1 hour and subsequent washing three times, horseradish peroxidase-labeled streptavidin (GE Healthcare) was added thereto and incubated at room temperature for 1 hour. After washing three times, a TMBZ (3,3′,5,5′-tetramethylbenzidine, Sigma-Aldrich) solution was added to each well and incubated at room temperature for 2 minutes. An equal amount of a reaction stopping solution (1N H2SO4, Wako Pure Chemical Industries) was added to each well. The absorbance at 450 nm was read using a microplate reader (PerkinElmer).

T1 sequence (P54764 20-547): as above

Row | Molecule | ka (human EphA4) [M⁻¹ s⁻¹] | kd (human EphA4) [s⁻¹] | Kd (human EphA4) [nM] | IC50 [1] [nM]
1 | 83 (antibody, V domains shown, constant regions without entry; synthetic humanized antibody light chain variable region sequence; synthetic humanized antibody heavy chain variable region sequence) VL: DIQMTQSPSSLSASVGDRVTITCRASENIYRNLAWYQQKPGKAPKLLLYAATNLADGVPSRFSGSGSGTDYTLTISSLQSEDFATYYCQHFWGTPWTFGQGTKVEIK VH: QIQLVQSGSELKKPGASVKVSCKASGYTFTDYSMHWVRQAPGQGLKWMGWINTETGEPTYAQGFTGRFVFSLDTSVSTAYLQISSLKAEDTAVYYCARIPLYYYGSRYWYFDVWGQGTTVTVSS | 290000 | 0.00054 | 1.9 | 3.7
2 | 86 (antibody, V domains shown, constant regions without entry; synthetic humanized antibody light chain variable region sequence; synthetic humanized antibody heavy chain variable region sequence) VL: DIQMTQSPSSLSASVGDRVTITCRASENIYRNLAWYQQKPGKAPKLLLYAATNLADGVPSRFSGSGSGTDYTLTISSLQSEDFATYYCQHFWGTPWTFGQGTKVEIK VH: QIQLVQSGSELKKPGASVKVSCKASGYTFTDYSMHWVRQAPGQGLKWMGWINTETGEPTYADDFKGRFVFSLDTSVSTAYLQISSLKAEDTAVYYCARIPLYYYGSRYWYFDVWGQGTTVTVSS | 310000 | 0.00046 | 1.5 | 4
3 | 84 (antibody, V domains shown, constant regions without entry; synthetic humanized antibody light chain variable region sequence; synthetic humanized antibody heavy chain variable region sequence) VL: DIQMTQSPSSLSASVGDRVTITCRASENIYRNLAWYQQKPGKAPKLLLYAATNLADGVPSRFSGSGSGTDYTLTISSLQSEDFATYYCQHFWGTPWTFGQGTKVEIK VH: QVQLVQSGSELKKPGASVKVSCKASGYTFTDYSMHWVRQAPGQGLEWMGWINTETGEPTYADDFKGRFVFSLDTSVSTAYLQISSLKAEDTAVYYCARIPLYYYGSRYWYFDVWGQGTTVTVSS | 350000 | 0.00056 | 1.7 | 4.6
4 | 85 (antibody, V domains shown, constant regions without entry; synthetic humanized antibody light chain variable region sequence; synthetic humanized antibody heavy chain variable region sequence) VL: DIQMTQSPSSLSASVGDRVTITCRASENIYRNLAWYQQKPGKAPKLLLYAATNLADGVPSRFSGSGSGTDYTLTISSLQSEDFATYYCQHFWGTPWTFGQGTKVEIK VH: QVQLVQSGSELKKPGASVKVSCKASGYTFTDYSMHWVRQAPGQGLKWMGWINTETGEPTYADDFKGRFVFSLDTSVSTAYLQISSLKAEDTAVYYCARIPLYYYGSRYWYFDVWGQGTTVTVSS | 310000 | 0.0005 | 1.6 | 4
5 | 87 (antibody, V domains shown, constant regions without entry; synthetic humanized antibody light chain variable region sequence; synthetic humanized antibody heavy chain variable region sequence) VL: DIQMTQSPSSLSASVGDRVTITCRASENIYRNLAWYQQKPGKAPQLLLYAATNLADGVPSRFSGSGSGTDYTLTISSLQPEDFATYYCQHFWGTPWTFGQGTKVEIK VH: QVQLVQSGSELKKPGASVKVSCKASGYTFTDYSMHWVRQAPGQGLEWMGWINTETGEPTYAQGFTGRFVFSLDTSVSTAYLQISSLKAEDTAVYYCARIPLYYYGSRYWYFDVWGQGTTVTVSS | 350000 | 0.00051 | 1.5 | 3

More lines, now with the values ahead:

Row | ka (human EphA4) [M⁻¹ s⁻¹] | kd (human EphA4) [s⁻¹] | Kd (human EphA4) [nM] | IC50 [1] [nM] | Molecule
6 | 310000 | 0.00041 | 1.3 | 4.3 | 89 (antibody, V domains shown, constant regions without entry; synthetic humanized antibody light chain variable region sequence; synthetic humanized antibody heavy chain variable region sequence) VL: DIQMTQSPSSLSASVGDRVTITCRASENIYRNLAWYQQKPGKAPQLLLYAATNLADGVPSRFSGSGSGTDYTLTISSLQPEDFATYYCQHFWGTPWTFGQGTKVEIK VH: QIQLVQSGSELKKPGASVKVSCKASGYTFTDYSMHWVRQAPGQGLKWMGWINTETGEPTYAQGFTGRFVFSLDTSVSTAYLQISSLKAEDTAVYYCARIPLYYYGSRYWYFDVWGQGTTVTVSS
7 | 330000 | 0.00044 | 1.3 | 4.9 | 91 (antibody, V domains shown, constant regions without entry; synthetic humanized antibody light chain variable region sequence; synthetic humanized antibody heavy chain variable region sequence) VL: DIQMTQSPSSLSASVGDRVTITCRASENIYRNLAWYQQKPGKAPQLLLYAATNLADGVPSRFSGSGSGTDYTLTISSLQPEDFATYYCQHFWGTPWTFGQGTKVEIK VH: QVQLVQSGSELKKPGASVKVSCKASGYTFTDYSMHWVRQAPGQGLKWMGWINTETGEPTYADDFKGRFVFSLDTSVSTAYLQISSLKAEDTAVYYCARIPLYYYGSRYWYFDVWGQGTTVTVSS
8 | 360000 | 0.00055 | 1.5 | 4.5 | 90 (antibody, V domains shown, constant regions without entry; synthetic humanized antibody light chain variable region sequence; synthetic humanized antibody heavy chain variable region sequence) VL: DIQMTQSPSSLSASVGDRVTITCRASENIYRNLAWYQQKPGKAPQLLLYAATNLADGVPSRFSGSGSGTDYTLTISSLQPEDFATYYCQHFWGTPWTFGQGTKVEIK VH: QVQLVQSGSELKKPGASVKVSCKASGYTFTDYSMHWVRQAPGQGLEWMGWINTETGEPTYADDFKGRFVFSLDTSVSTAYLQISSLKAEDTAVYYCARIPLYYYGSRYWYFDVWGQGTTVTVSS
9 | 300000 | 0.00042 | 1.4 | 3.6 | 88 (antibody, V domains shown, constant regions without entry; synthetic humanized antibody light chain variable region sequence; synthetic humanized antibody heavy chain variable region sequence) VL: DIQMTQSPSSLSASVGDRVTITCRASENIYRNLAWYQQKPGKAPQLLLYAATNLADGVPSRFSGSGSGTDYTLTISSLQPEDFATYYCQHFWGTPWTFGQGTKVEIK VH: QVQLVQSGSELKKPGASVKVSCKASGYTFTDYSMHWVRQAPGQGLKWMGWINTETGEPTYAQGFTGRFVFSLDTSVSTAYLQISSLKAEDTAVYYCARIPLYYYGSRYWYFDVWGQGTTVTVSS
